Results published in patent US20190367613A1 (JOUNCE THERAPEUTICS, published 2019).

T1: Human ICOS (human, UniProt Q9Y6W8 21-199)
T1 sequence: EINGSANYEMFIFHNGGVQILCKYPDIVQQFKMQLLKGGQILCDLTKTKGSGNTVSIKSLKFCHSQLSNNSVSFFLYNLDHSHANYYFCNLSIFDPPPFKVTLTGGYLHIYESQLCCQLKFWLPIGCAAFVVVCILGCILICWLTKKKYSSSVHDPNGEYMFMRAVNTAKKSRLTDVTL

B1: JTX-2011 (antibody, V domains shown)
VH: EVQLVESGGGLVQPGGSLRLSCAASGFTFSDYWMDWVRQAPGKGLVWVSNIDEDGSITEYSPFVKGRFTISRDNAKNTLYLQMNSLRAEDTAVYYCTRWGRFGFDSWGQGTLVTVSS
VL: DIVMTQSPDSLAVSLGERATINCKSSQSLLSGSFNYLTWYQQKPGQPPKLLIFYASTRHTGVPDRFSGSGSGTDFTLTISSLQAEDVAVYYCHHHYNAPPTFGPGTKVDIKR
B2: M13 anti-ICOS detection antibody (antibody, V domains shown)
VH: EVQLQQSGAELVRPGAVVKLSCKASGFDIKDYYMHWVQQRPEQGLEWIGWIDPENGNAVYDPQFQGKASITADTSSNTAYLQLSSLTSEDTAVYYCASDYYGSKGYLDVWGAGTTVTVSS
VL: QIVLTQSPTIMSASPGEKVTITCSASSSVSYMHWFQQKPGTSPKLWIYSTSNLASGVPARFGGSRSGTSYSLTISRMEAEDAATYYCQQRSSYPFTFGSGTKLEIK
notes: also called 2M13; biotinylated M13 anti-ICOS detection antibody

Key:
Human ICOS [1] = molecular target: T1, Human ICOS; experiment: cell-based or functional assay
Human ICOS [2] = molecular target: T1, Human ICOS; experiment: intracellular flow cytometry on permeabilized human PBMCs, streptavidin PE detection

Binder | intracellular IFNγ production in CD4+ T cells (flow cytometry, after tetanus toxoid stimulation) (Human ICOS [1]) [fold] | intracellular TNFα production in CD4+ T cells (flow cytometry, after tetanus toxoid stimulation) (Human ICOS [1]) [fold] | binding result (Human ICOS [2])
B1 | 4 | 4 | –
B2 | – | – | binds
